PMC9482650, “Quantitative fragmentomics allow affinity mapping of interactomes” (Nature Communications, 2022)

Legend:
Test in all cases: holdup assay
Parameters in all cases: key: below the threshold = too weak to quantify, mostly under pKd 3.1 to 4
[1] = target: T1, LIN7B, Q9HAP6
T1 sequence (Q9HAP6 88-185, limits assumed, looked up): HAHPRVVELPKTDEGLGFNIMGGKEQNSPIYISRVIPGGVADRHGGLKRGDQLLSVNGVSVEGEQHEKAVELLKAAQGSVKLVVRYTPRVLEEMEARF

[2] = target: MAST1, Q9Y2H9
[3] = target: T2, MPP6, Q9NZW5
T2 sequence (Q9NZW5 125-219, limits assumed, looked up): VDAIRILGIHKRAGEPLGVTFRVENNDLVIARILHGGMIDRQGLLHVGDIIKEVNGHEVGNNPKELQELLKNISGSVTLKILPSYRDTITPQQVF

[4] = target: SNX27, Q96L92
[5] = target: DLG5_1, Q8TDM6
[6] = target: NHERF2_2, Q15599
[7] = target: Inadl_2, Q8NI35
[8] = target: T3, SYNJ2BP, P57105
T3 sequence (P57105 8-110, limits assumed, looked up): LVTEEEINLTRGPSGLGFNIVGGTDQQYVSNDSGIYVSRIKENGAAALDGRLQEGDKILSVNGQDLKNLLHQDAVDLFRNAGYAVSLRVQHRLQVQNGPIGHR

[9] = target: NHERF4_1, Q86UT5-2
[10] = target: IL16_4, Q14005
[11] = target: MAGI1_2, Q96QZ7
[12] = target: T4, PARD3B_1, Q8TEW8
T4 sequence (Q8TEW8 196-299, limits assumed, looked up): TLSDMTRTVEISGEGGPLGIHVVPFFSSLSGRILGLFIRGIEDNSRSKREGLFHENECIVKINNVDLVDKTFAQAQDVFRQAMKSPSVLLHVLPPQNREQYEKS

[13] = target: T5, DLG3_3, Q92796
T5 sequence (Q92796 374-475, limits assumed, looked up): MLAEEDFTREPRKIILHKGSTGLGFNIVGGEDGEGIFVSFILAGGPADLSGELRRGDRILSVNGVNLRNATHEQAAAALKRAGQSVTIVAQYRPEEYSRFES

[14] = target: T6, RADIL, Q96JH8
T6 sequence (Q96JH8 971-1071, limits assumed, looked up): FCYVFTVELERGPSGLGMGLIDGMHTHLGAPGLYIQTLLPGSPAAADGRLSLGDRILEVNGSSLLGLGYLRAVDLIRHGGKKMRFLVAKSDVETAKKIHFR

[15] = target: T7, LRRC7, Q96NW7
T7 sequence (Q96NW7 1440-1537, limits assumed, looked up): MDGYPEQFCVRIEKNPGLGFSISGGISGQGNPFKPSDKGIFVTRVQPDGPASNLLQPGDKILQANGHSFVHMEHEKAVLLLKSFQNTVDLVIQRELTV

[16] = target: DLG4_3, P78352
[17] = target: T8, SNTG2, Q9NY99
T8 sequence (Q9NY99 68-166, limits assumed, looked up): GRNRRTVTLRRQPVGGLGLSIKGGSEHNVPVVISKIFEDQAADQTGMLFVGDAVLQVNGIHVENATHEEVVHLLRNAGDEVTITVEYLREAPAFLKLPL

[18] = target: NOS1, P29475
[19] = target: PARD3_3, Q8TEW0
[20] = target: DLG1_3, Q12959
[21] = target: FRMPD3, Q5JV73
[22] = target: Inadl_9, Q8NI35
[23] = target: GRASP, Q7Z6J2
[24] = target: TJP2_1, Q9UDY2
[25] = target: T9, APBA3_1, O96018
T9 sequence (O96018 389-490, limits assumed, looked up): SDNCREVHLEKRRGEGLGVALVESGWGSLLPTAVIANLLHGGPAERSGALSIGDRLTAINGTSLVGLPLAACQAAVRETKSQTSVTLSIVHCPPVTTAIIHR

[26] = target: Inadl_6, Q8NI35
[27] = target: T10, MPDZ_10, O75970
T10 sequence (O75970 1624-1722, limits assumed, looked up): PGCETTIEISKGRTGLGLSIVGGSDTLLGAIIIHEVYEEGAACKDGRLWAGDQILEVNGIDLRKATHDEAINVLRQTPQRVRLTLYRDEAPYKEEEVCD

[28] = target: AHNAK1, Q09666
[29] = plain residues with an end cap or a label only (N-terminal biotin on a linker: (peg)3)
[30] = plain residues with an end cap or a label only (N-terminal biotin on a linker: ado-ado)

Sequence of DLG5_1, Q8TDM6 (Q8TDM6 617-713): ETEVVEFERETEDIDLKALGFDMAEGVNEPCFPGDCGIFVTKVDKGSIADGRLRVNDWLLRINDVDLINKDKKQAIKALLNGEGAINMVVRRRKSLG
Sequence of TJP2_1, Q9UDY2 (Q9UDY2 24-128): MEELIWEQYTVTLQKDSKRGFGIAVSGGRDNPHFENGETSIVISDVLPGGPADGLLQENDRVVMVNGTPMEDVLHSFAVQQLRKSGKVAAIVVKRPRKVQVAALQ
Sequence of AHNAK1, Q09666 (Q09666 4-100): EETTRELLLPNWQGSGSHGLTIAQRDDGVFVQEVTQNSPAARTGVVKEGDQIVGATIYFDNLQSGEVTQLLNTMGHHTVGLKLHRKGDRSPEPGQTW
Sequence of NHERF4_1, Q86UT5-2 (Q86UT5 other isoform, or with tags, fused parts or gaps): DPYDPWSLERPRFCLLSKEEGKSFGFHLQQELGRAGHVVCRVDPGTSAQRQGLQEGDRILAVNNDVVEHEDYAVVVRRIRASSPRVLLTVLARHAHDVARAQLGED
Sequence of GRASP, Q7Z6J2 (Q7Z6J2 96-193): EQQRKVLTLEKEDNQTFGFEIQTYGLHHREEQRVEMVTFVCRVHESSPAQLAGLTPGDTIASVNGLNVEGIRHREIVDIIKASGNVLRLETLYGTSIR
Sequence of Inadl_9, Q8NI35 (Q8NI35 1530-1615): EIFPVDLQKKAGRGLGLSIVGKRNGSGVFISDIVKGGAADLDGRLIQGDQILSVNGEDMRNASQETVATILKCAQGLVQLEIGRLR
Sequence of IL16_4, Q14005 (Q14005 1229-1329): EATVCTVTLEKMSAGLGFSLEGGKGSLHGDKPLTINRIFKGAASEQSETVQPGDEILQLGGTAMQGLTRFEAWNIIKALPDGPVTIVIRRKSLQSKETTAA
Sequence of Inadl_2, Q8NI35 (Q8NI35 238-335): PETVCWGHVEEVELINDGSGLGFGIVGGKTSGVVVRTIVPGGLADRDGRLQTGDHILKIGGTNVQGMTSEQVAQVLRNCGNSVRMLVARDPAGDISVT
Sequence of DLG4_3, P78352 (P78352 306-403): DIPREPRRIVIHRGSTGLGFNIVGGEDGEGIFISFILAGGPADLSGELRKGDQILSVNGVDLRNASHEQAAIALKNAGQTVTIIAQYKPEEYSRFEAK
Sequence of MAGI1_2, Q96QZ7 (Q96QZ7 456-580): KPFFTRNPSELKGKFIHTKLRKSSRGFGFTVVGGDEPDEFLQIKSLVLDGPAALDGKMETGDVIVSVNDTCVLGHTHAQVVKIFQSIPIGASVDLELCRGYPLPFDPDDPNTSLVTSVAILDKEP
Sequence of NOS1, P29475 (P29475 9-101): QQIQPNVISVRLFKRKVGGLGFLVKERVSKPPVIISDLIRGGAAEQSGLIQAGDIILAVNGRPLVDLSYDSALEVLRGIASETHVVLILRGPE
Sequence of Inadl_6, Q8NI35 (Q8NI35 1058-1167): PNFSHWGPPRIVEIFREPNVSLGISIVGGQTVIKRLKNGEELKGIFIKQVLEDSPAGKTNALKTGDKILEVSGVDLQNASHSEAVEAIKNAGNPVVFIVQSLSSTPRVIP
Sequence of FRMPD3, Q5JV73 (Q5JV73 12-100): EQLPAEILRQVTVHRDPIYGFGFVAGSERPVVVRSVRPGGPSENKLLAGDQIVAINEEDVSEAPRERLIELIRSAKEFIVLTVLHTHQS
Sequence of MAST1, Q9Y2H9 (Q9Y2H9 962-1065): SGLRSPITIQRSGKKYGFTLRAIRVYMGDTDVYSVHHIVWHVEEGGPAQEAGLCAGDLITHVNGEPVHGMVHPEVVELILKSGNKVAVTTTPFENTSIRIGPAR
Sequence of PARD3_3, Q8TEW0 (Q8TEW0 582-685): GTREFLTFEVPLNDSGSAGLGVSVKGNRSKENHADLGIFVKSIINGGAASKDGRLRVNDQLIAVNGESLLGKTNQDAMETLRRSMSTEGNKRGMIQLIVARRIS
Sequence of NHERF2_2, Q15599 (Q15599 142-238): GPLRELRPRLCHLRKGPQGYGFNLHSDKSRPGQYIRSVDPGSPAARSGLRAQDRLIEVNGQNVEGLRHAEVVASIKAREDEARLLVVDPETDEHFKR
Sequence of DLG1_3, Q12959 (Q12959 457-571): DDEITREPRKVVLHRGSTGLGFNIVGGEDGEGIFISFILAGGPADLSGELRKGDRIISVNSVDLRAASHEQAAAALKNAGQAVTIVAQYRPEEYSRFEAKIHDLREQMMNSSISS

## QQSMSSADSTQA [SARS-Cov2-N, P0DTC9]
[1]; [29]
  pKd: below the threshold
[2]; [29]
  pKd: below the threshold
[3]; [29]
  pKd: below the threshold
[4]; [29]
  pKd: below the threshold
[5]; [29]
  pKd: below the threshold
[6]; [29]
  pKd: below the threshold
[7]; [29]
  pKd: below the threshold
[8]; [29]
  pKd: below the threshold
[9]; [29]
  pKd: below the threshold
[10]; [29]
  pKd: below the threshold
[11]; [29]
  pKd: below the threshold
[12]; [29]
  pKd: below the threshold
[13]; [29]
  pKd: below the threshold
[14]; [29]
  pKd: below the threshold
[15]; [29]
  pKd: below the threshold
[16]; [29]
  pKd: below the threshold
[17]; [29]
  pKd: below the threshold
[18]; [29]
  pKd: below the threshold
[19]; [29]
  pKd: below the threshold
[20]; [29]
  pKd: below the threshold
[21]; [29]
  pKd: below the threshold
[22]; [29]
  pKd: below the threshold
[23]; [29]
  pKd: below the threshold
[24]; [29]
  pKd: below the threshold
[25]; [29]
  pKd: below the threshold
[26]; [29]
  pKd: below the threshold
[27]; [29]
  pKd: below the threshold
[28]; [29]
  pKd: below the threshold

## PPGKHLVTEV [KCNA7, Q96RP8]
[1]; [30]
  pKd: 3.97
[2]; [30]
  pKd: 4.58
[3]; [30]
  pKd: below the threshold
[4]; [30]
  pKd: 4.95
[5]; [30]
  pKd: below the threshold
[6]; [30]
  pKd: below the threshold
[7]; [30]
  pKd: below the threshold
[8]; [30]
  pKd: 4.86
[9]; [30]
  pKd: 3.94
[10]; [30]
  pKd: below the threshold
[11]; [30]
  pKd: 4.24
[12]; [30]
  pKd: below the threshold
[13]; [30]
  pKd: 4.33
[14]; [30]
  pKd: 4.52
[15]; [30]
  pKd: 3.96
[16]; [30]
  pKd: 4.16
[17]; [30]
  pKd: below the threshold
[18]; [30]
  pKd: 3.7
[19]; [30]
  pKd: below the threshold
[20]; [30]
  pKd: 4.09
[21]; [30]
  pKd: below the threshold
[22]; [30]
  pKd: below the threshold
[23]; [30]
  pKd: 4.6
[24]; [30]
  pKd: 3.6
[25]; [30]
  pKd: below the threshold
[26]; [30]
  pKd: 3.56
[27]; [30]
  pKd: below the threshold
[28]; [30]
  pKd: below the threshold

## ELSATVTTDC [TRIP6, Q15654]
[1]; [30]
  pKd: below the threshold
[2]; [30]
  pKd: 3.63
[3]; [30]
  pKd: below the threshold
[4]; [30]
  pKd: 4.57
[5]; [30]
  pKd: below the threshold
[6]; [30]
  pKd: 3.83
[7]; [30]
  pKd: below the threshold
[8]; [30]
  pKd: 4.68
[9]; [30]
  pKd: 3.69
[10]; [30]
  pKd: below the threshold
[11]; [30]
  pKd: below the threshold
[12]; [30]
  pKd: below the threshold
[13]; [30]
  pKd: below the threshold
[14]; [30]
  pKd: 3.52
[15]; [30]
  pKd: below the threshold
[16]; [30]
  pKd: below the threshold
[17]; [30]
  pKd: 3.79
[18]; [30]
  pKd: below the threshold
[19]; [30]
  pKd: below the threshold
[20]; [30]
  pKd: 4.02
[21]; [30]
  pKd: below the threshold
[22]; [30]
  pKd: below the threshold
[23]; [30]
  pKd: 3.54
[24]; [30]
  pKd: below the threshold
[25]; [30]
  pKd: below the threshold
[26]; [30]
  pKd: below the threshold
[27]; [30]
  pKd: below the threshold
[28]; [30]
  pKd: below the threshold

## DDASLPVSDV [PLEKHA1, Q9HB21]
[1]; [30]
  pKd: below the threshold
[2]; [30]
  pKd: 3.96
[3]; [30]
  pKd: below the threshold
[4]; [30]
  pKd: below the threshold
[5]; [30]
  pKd: below the threshold
[6]; [30]
  pKd: below the threshold
[7]; [30]
  pKd: below the threshold
[8]; [30]
  pKd: 3.59
[9]; [30]
  pKd: below the threshold
[10]; [30]
  pKd: below the threshold
[11]; [30]
  pKd: below the threshold
[12]; [30]
  pKd: below the threshold
[13]; [30]
  pKd: below the threshold
[14]; [30]
  pKd: 3.59
[15]; [30]
  pKd: below the threshold
[16]; [30]
  pKd: below the threshold
[17]; [30]
  pKd: 4.48
[18]; [30]
  pKd: below the threshold
[19]; [30]
  pKd: below the threshold
[20]; [30]
  pKd: below the threshold
[21]; [30]
  pKd: below the threshold
[22]; [30]
  pKd: 3.59
[23]; [30]
  pKd: 3.65
[24]; [30]
  pKd: below the threshold
[25]; [30]
  pKd: below the threshold
[26]; [30]
  pKd: 3.65
[27]; [30]
  pKd: 3.91
[28]; [30]
  pKd: below the threshold
